Laboratory results as given in publication PMC9437119 (The Journal of Cell Biology, 2022).
Several values for one entry are separate records, joined by “and”; a condition that tells them apart may be missing. Equal entries are not always repeated.

Molecular target: the molecule itself
Experiment: SDS-resistant oligomers on SDS-PAGE immunoblot of the immunoprecipitate; anti-myc immunoprecipitate of the Mid51/Fis1 complex from HeLa lysate heated 20 min at 55°C, 4-20% Tris-Glycine SDS-PAGE; SDS-resistant complexes detected with anti-myc (Mid51 species) or anti-Flag (Fis1 species); species normalized to monomer

Protein	stoichiometry N
myc-tagged human Mid51 (WT) (natural protein, UniProt Q9NQG6 1-463, looked up, Mid51 (MIEF1), human, outer mitochondrial membrane protein; plasmid generated using VectorBuilder; Seen as monomer, dimer, tetramer and HMW species on the IP immunoblot; also called MIEF1; WT Mid51; source: HeLa cells, transfected for 24 h, in lysate) MAGAGERKGKKDDNGIGTAIDFVLSNARLVLGVGGAAMLGIATLAVKRMYDRAISAPTSPTRLSHSGKRSWEEPNWMGSPRLLNRDMKTGLSRSLQTLPTDSSTFDTDTFCPPRPKPVARKGQVDLKKSRLRMSLQEKLLTYYRNRAAIPAGEQARAKQAAVDICAELRSFLRAKLPDMPLRDMYLSGSLYDDLQVVTADHIQLIVPLVLEQNLWSCIPGEDTIMNVPGFFLVRRENPEYFPRGSSYWDRCVVGGYLSPKTVADTFEKVVAGSINWPAIGSLLDYVIRPAPPPEALTLEVQYERDKHLFIDFLPSVTLGDTVLVAKPHRLAQYDNLWRLSLRPAETARLRALDQADSGCRSLCLKILKAICKSTPALGHLTASQLTNVILHLAQEEADWSPDMLADRFLQALRGLISYLEAGVLPSALNPKVNLFAELTPEEIDELGYTLYCSLSEPEVLLQT	2 and 4
myc-tagged human Mid51(Y240N) (natural protein, UniProt Q9NQG6 1-463, looked up, Mid51 (MIEF1), human, variant Y240N linked to dominant optic atrophy; plasmid generated using VectorBuilder; source: HeLa cells, transfected for 24 h, in lysate) MAGAGERKGKKDDNGIGTAIDFVLSNARLVLGVGGAAMLGIATLAVKRMYDRAISAPTSPTRLSHSGKRSWEEPNWMGSPRLLNRDMKTGLSRSLQTLPTDSSTFDTDTFCPPRPKPVARKGQVDLKKSRLRMSLQEKLLTYYRNRAAIPAGEQARAKQAAVDICAELRSFLRAKLPDMPLRDMYLSGSLYDDLQVVTADHIQLIVPLVLEQNLWSCIPGEDTIMNVPGFFLVRRENPENFPRGSSYWDRCVVGGYLSPKTVADTFEKVVAGSINWPAIGSLLDYVIRPAPPPEALTLEVQYERDKHLFIDFLPSVTLGDTVLVAKPHRLAQYDNLWRLSLRPAETARLRALDQADSGCRSLCLKILKAICKSTPALGHLTASQLTNVILHLAQEEADWSPDMLADRFLQALRGLISYLEAGVLPSALNPKVNLFAELTPEEIDELGYTLYCSLSEPEVLLQT	2 and 4
